Reference: the domain aggregation screens of Martell et al. (2025)

Assay: soluble fraction after stress (log2 fold change); higher = more stays soluble; pooled small domains, quantitative proteomics
Conditions: stress: 75 degC
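Further: 20 min heating vs room temperature control held 20 min.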

Row | Sequence | soluble fraction (log2)
1 | HMRTIGDSVYEKIKYDIVHLTLKPGEKLSEASLAEKYGISKAPIRVALRKLQEEGLIVIRPQSGSIVSP | -1.19
2 | HMRTMRHLSVPRQETQQILSQLKAEFALPQGARVQPDPSDSKRTLIPVKEGAESELLSRYPVVHAEP | 0.0613
3 | HMRTNNEITSYKLKSGKKRWKFQTYLGLDDKGQKVSVTRQGFRTYNEAISEYNKLRAQGTQGYQ | -0.948
4 | HMRTPTGVQAYLSSGLIKGIGEKTAAAIVDKFGTDALSVIETDPERLLEIPGITPNKLREILESYNQH | 0.204
5 | HMRTVAERYGLTAGQWRVLELLTQGKTNRQIAEMLDVTEGTVKIHVSAIFKAMKVTNRTQALLLAKKH | -1.28
6 | HMRTYDPQAVELNNKALELINQGRLDSALLVYDQSIKTDKTYYFPHIGKSIIYMRKKDWNKAFEETQQAIK | 0.493
7 | HMRVDLATEVHSVLRRMMSRPPTLQEIRADLDGEEPGRVHEALDALRAAFRGGRGPKNPYESLKRSLRRG | -0.636
8 | HMRVDLVQRLARHGLSPRQSAVAGGVLRGLDNGEISRQLYIAEQTVKDHLHEIYHRLGVHTRTELLIKVLG | -2.22
9 | HMRVGISRNSGAAGIAVWLTQKLGRPVAKTEEIVHILKNWVDDQYEAGRVTNIGDGELWSVYKQMEAEE | -0.953
10 | HMRVTEIDYGAFMKMIEEKNIGEVKVEDYEIVFTDKDNKNIYKTGIMDDPDLTQRLYNSGAVFA | 0.0318
11 | HMRWGDPLTVKVPSFIGQTKDDIAKQHYPFRIEWHGEGAKIGSQLPEVDSVIKQDGTIHLYLV | -0.0635
12 | HMRYFDDEELNNKFLEFLSMRKKIRKPVRTDRALKALLKKLHELSGGDVGLMKQIIDQSLDKEWLGLFEL | -0.889
13 | HMRYNPETTAGRRGLIIKMLDEYGQVNVNELSRYFNVSEVTVRNDLAYLERKNLLIRARGGAIKTE | -1.91
14 | HMRYWVKSETDFLIENRGKYSYQEFADMLGRSYAVVYDKMHQLKIDYTKEELEIFDEKHKAQMREKQQR | -1.96
15 | HMSAAPVGPWALSEFLDAVEKDSVERVTFDDAGKALVAVDADGGRHRVEILPSEGPEILAALRKHSVQFA | 0.181
16 | HMSADEVSQQLTSEQTKSKSYQALLQAYAAYQQKSFDDAALELQNVQQDVLSDSQKTIYNTISQAVNS | 0.26
17 | HMSADISIGYNIPKGSVTVSAGGRTLQEGIDYDINYDLGTIKITNQAILNAGLPVQVNFENNAS | 0.849
18 | HMSADLVYLRKRLQDAIAQLPENMRTAYTLFQIANRSIREISELTGASESLVKVRIHRAKGKLQKQLEDLK | -1.43
19 | HMSAEDYLERIHELIESKGTAHVADIAQSLGVGKPSVTSMVQKLADEGYLNYEKYRSLTLTDSGRSIA | 0.165
20 | HMSAEDYMEMIYRLSQENGFTRVNDLASALNVQPPSVTRMIQKLAELNLIKYEKYGVIMLQPYGIEVGRSL | -2.65
21 | HMSAEGPALADWVVRDAHSIGAKITNSVAQLLIDRVGHNQQLLHNELQKLALVQTDISAELVKTMSHY | -0.643
22 | HMSAETRSWTDAQGNQTQAVLRGFDGGDVLLQNAAGKTLRVPVKNLSEDDQRYVVLNISTLID | -0.0549
23 | HMSAITLDQARAIALDHAGISEGDATFVKEQTGTSSYEIEFYSGSNEYDYEIDKATGAILNVDR | 0.22
24 | HMSALAEELIKKNQAMILTIKPRDTIWGIANRFQSPPSEKFINQIIELNQVDPYRLRIGQDLLIPLN | -0.984
25 | HMSALTDQQQRVLELVASGLVYKEVAAALSISEPTVKYHMGNILTRLHVKNRAQAIAAARQQGLL | -1.58
26 | HMSAMKYTSEVFQRLSRGQFISSNSIDAETRAIYSDIEENQQEYEDYFSKIDFLLSSGDGFYYFSRK | -2.38
27 | HMSAMSPTEVGERLRLAREAVRMTQKQAADAISVARTTLVAIEQGQRRVRIDELQQLAKTYGVSVNAILR | -2.27
28 | HMSAPAKKPKIKVDLSKVHAGTIVRHKGYGLGQVKGIDGAIIVVTFDGVDKKFQFPGGFENGFLFLTED | -1.48

Row | Sequence | soluble fraction (log2)
29 | HMSAPLKELGNDPESGKPIVVKDGRFGAYVTDGETNATLRKTDAVESLTPERAAELLAEKRAKG | 0.493
30 | HMSAPTAFSERELELLAGMRRGASNKAMAEQLFISVNTVKYHRANLMRKLGARDRNEALEVAARLG | 0.404
31 | HMSAQDLIVKTDATQVEARVLEISPEQIRYKRFSNPDGPTYVLPVDAVDYIRYANGETDSFR | 0.076
32 | HMSASAIYVRPKDVKEPEEVADYLSGVLELDREKLYKKITDKSQWIALIERKVDNDIAFDIRNKKFKGIEI | -0.301
33 | HMSASIAEGTVIMLENTTNIRSGMSEDSSKVGTAYAGEKVTVVMSYAEGWTKVKWNGETGYIKTALLQL | -0.607
34 | HMSASNSIDFANRMIYNKNQVAVFNFGKHMGRPVLEVLKSDPSYYDWMMKGDFPMDTKRKLTEIKLQGF | -0.793
35 | HMSATPQRMTIIDALDSSGKNLSAYELLDLLNDKGQLFNISTIYRVLDFWIEMGIVHKINSSNTYL | 0.15
36 | HMSATQDAAIAVRIRDILSELDGYEDVTVTVTSGIVTMRGTTLDSEKIARLNDLTGRVEGVVAIENSVTET | -0.207
37 | HMSAVIGTATVTTSSGSLNLRESASLYSRVIRTIPRGATVDVLSRDTSWSRVRYAGSEGYVLNQYLTFQT | -2.1
38 | HMSDAGMNQIGDMFRAPDLMAKLAMNPATREYVSQPDFLAMMEEVKRNPSALNNHLRDPRMMNVLSVAM | -0.271
39 | HMSDAPLLSIRSLAVAFDGTRVVDGVSFDVARGEVVALVGESGSGKTVTGLSLLDLVPPPGRRVGGEV | 0.278
40 | HMSDDAVVRMRVPEDALGLSLRETDFRQRFGVYVLAIETRDGKLLAPPDPQRPLGKDDVLVVIQKR | -0.847
41 | HMSDDLLTGLDAYSRGDWTTATASFERVLTTADPNNRTEALYWLVMSETSAQNYQRALNYANTFL | -0.707
42 | HMSDDSTIVELLASSLRRDIAFGTLLPDQKLKLNELRTRYGGSIHSMRETLRILSAEGLVEATAQRGFRVT | 0.0731
43 | HMSDEIQLQFIQISIFKDHPWADMQIKDMNIIPDLLIVMILRDGERIIPNGNTRIMPGDMVIITAMSANT | -2.54
44 | HMSDESALIAAIEKAIAAQPETAEKVRNGHLPAAGALIGSVMKETKGQADAARVRELLLGLLGQ | 0.441
45 | HMSDESRAEIVSSAKRLFQQYGYKKTTVSDIAKAMGKVKSAIYYYFPDKESLLRAVIDEEVG | 0.0318
46 | HMSDFEASDPALLREGMRVQHLNFGKGTVITIEGAGANKKASVAFDGVGTKQLMLRFARLKIIYE | -2.59
47 | HMSDFKDIILKLRNEQGFTQEKLADVLGTSKSTVGMWEMGVRFPSKELYEAIADYFNVDIDYLYGRTDIR | -0.83
48 | HMSDGYETLVNMAKPFLNNSKQITENDITDAVNTVSVMLKKRYDMTDEDIRKAVSELLHFYA | -0.305
49 | HMSDIDHIAGRRIRQARLNAGMTLETLASQAGISKALLSKIENSKVSSPLATFSKISKVLGVPLSDLLKE | -0.748
50 | HMSDILALMPGTIKQILVAPGDSVKRGQTVIIMESMKMELTIAAHRDGVVKRIPVEQGGQVEKGMRLLELE | -1.86
51 | HMSDIPEGYMSRVQLGDEWGIHLATFDKAVIAVKEKLGTVVFIDKSNNTTAGYSPEQQTIIYDWLAEN | -2.22
52 | HMSDKNVYGKYKNVFLSDEEFSELKQFYPNDWSDRIETLSEGIELKGYKYKNYLLAIKKWAEYEGQKAD | -0.47
53 | HMSDKPIFIDTAGIAALSAIGFSKYQATIIFNYIKKGGAIYTVKDLAKIYSIDQKTIDLTQSKIIFS | 0.365
54 | HMSDKPRYYINGNTLFISDKSVKKVLFSDLSGRSILHTTETAINIATFRGAHILTVIYTDGSTKSEVIF | -1.47
55 | HMSDLLYAHPTEKGFQLVNVTQKVVMVILKTAAPNVYTVKGKNAIVFKEGNSWFYSENHNKKLLNIK | -3.18
